Measurements published in patent US20220213213A1 (published 2022).

T1: human/mouse 5T4 chimera aa173-420 (human/mouse chimera, UniProt Q13641 32-420)
T1 chain: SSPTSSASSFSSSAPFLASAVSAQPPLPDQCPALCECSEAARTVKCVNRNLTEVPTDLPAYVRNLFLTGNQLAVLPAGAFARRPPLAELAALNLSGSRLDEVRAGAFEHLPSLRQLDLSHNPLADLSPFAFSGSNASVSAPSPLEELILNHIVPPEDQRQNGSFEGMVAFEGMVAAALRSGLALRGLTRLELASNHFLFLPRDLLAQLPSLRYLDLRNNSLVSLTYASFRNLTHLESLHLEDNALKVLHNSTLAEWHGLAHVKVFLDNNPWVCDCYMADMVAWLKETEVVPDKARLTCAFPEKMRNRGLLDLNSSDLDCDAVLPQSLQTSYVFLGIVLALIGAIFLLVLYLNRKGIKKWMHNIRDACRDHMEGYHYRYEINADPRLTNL

T2: 5T4-Fc (obtained from Peter L. Stern, University of Manchester) (human, UniProt Q13641 32-355)
T2 construct: also called h5T4-Fc; recombinant 5T4; not shown: Fc part not specified
T2 sequence (looked up): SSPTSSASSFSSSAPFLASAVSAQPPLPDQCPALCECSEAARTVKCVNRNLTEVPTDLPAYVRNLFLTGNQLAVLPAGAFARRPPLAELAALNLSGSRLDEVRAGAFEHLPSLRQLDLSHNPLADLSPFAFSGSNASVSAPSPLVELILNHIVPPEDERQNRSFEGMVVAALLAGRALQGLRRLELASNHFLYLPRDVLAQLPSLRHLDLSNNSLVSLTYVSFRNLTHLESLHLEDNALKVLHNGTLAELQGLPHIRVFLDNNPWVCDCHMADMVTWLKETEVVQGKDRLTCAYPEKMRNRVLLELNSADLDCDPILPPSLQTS

T3: 5T4 on the SPR chip (amine-coupled on Biacore; biotinylated on MASS-1) (UniProt Q13641 32-355, limits assumed, biotinylated in the MASS-1 assays)
T3 construct: also called biotinylated 5T4
T3 sequence (looked up): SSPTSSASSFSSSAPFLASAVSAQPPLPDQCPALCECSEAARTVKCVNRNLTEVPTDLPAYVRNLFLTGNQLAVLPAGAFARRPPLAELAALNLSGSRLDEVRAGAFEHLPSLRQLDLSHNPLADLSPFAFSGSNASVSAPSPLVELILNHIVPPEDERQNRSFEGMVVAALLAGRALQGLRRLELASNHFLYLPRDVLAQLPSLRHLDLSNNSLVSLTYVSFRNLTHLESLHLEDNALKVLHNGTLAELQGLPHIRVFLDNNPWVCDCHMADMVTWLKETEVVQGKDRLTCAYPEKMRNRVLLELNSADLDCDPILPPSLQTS


What was measured:
[1] = target: T1, human/mouse 5T4 chimera aa173-420; test: flow cytometry, chimera-transfected cells
[2] = target: T2, 5T4-Fc (obtained from Peter L. Stern, …); test: dual ELISA: coated 5T4-Fc, detection with CD137-bio
Method: Plates (#655074, Greiner Bio-One GmbH, Germany) were pre-coated with 0.5 μg/ml 5T4-Fc (obtained from Professor Peter Stern, University of Manchester) overnight. CD137-5T4 bsAb were diluted from 8 to 2×10⁻³ μg/ml in 1:4 dilutions and added in duplicates of 50 μl to each well. CD137-bio (Ancell #502-030) was used as detection antibody at 0.5 μg/ml and the binding was detected with Streptavidin-HRP (Pierce #21126). The ELISA was developed with SuperSignal ELISA PICO Chemiluminescent substrate (Thermo Scientific Pierce, Rockford, Ill. USA) during 2-10 minutes and read in an automated microplate based multi-detection reader (FLUOstar OPTIMA, Netherlands).

[3] = target: T3, 5T4 on the SPR chip (amine-coupled on …); test: SPR Biacore, 5T4 amine-coupled, mAb injected
Method: Binding kinetics of the 5T4-specific mAbs have been studied using two different SPR-based platforms, the Biacore 3000 (GE Healthcare) and the MASS-1 platform (Sierra Sensors). Briefly, 5T4 was captured at the sensor chip surface either via direct amine coupling (Biacore platform) or using a streptavidin coated chip and biotinylated 5T4 (MASS-1 platform). The different 5T4-specific mAbs were then injected over the chip in increasing concentrations and the association and dissociation rates studied in real time. A 1:1 Langmuir model was used for curve fitting.

Row | normalized % positive cells [1] | EC50 [2] [pM] | Kd [3] [pM] | koff [3] [s⁻¹] | Binder
1 | 0.3 | – | – | – | 1206/1207 (antibody, V domains shown) VH: EVQLLESGGGLVQPGGSLRLSCAASGFTFSGSSMSWVRQAPGKGLEWVSSIYYSGSGTYYADSVKGRFTISRDNSKNTLYLQMNSLRAEDTAVYYCARYGRNVHPYNLDYWGQGTLVTVSS VL: DIQMTQSPSSLSASVGDRVTITCRASQSISSYLNWYQQKPGKAPKLLIYAASSLQSGVPSRFSGSGSGTDFTLTISSLQPEDFATYYCQQGYYYLPTFGQGTKLEIK
2 | – | 1910 | – | – | 1626-1208 (bispecific antibody) chain 1: not shown chain 2: DIQMTQSPSSLSASVGDRVTITCRASQSISSYLNWYQQKPGKAPKLLIYAASSLQSGVPSRFSGSGSGTDFTLTISSLQPEDFATYYCQQGTGYGPLTFGQGTKLEIKRTVAAPSVFIFPPSDEQLKSGTASVVCLLNNFYPREAKVQWKVDNALQSGNSQESVTEQDSKDSTYSLSSTLTLSKADYEKHKVYACEVTHQGLSSPVTKSFNRGEC
3 | – | 400 | – | – | 1626-1210 (bispecific antibody) heavy: not shown light: DIQMTQSPSSLSASVGDRVTITCRASQSISSYLNWYQQKPGKAPKLLIYAASSLQSGVPSRFSGSGSGTDFTLTISSLQPEDFATYYCQQGTGYGPLTFGQGTKLEIKRTVAAPSVFIFPPSDEQLKSGTASVVCLLNNFYPREAKVQWKVDNALQSGNSQESVTEQDSKDSTYSLSSTLTLSKADYEKHKVYACEVTHQGLSSPVTKSFNRGEC
4 | -0.01 | – | 180 | 0.00081 | 1212/1213 (antibody, V domains shown) VH: EVQLLESGGGLVQPGGSLRLSCAASGFTFSSYAMSWVRQAPGKGLEWVSYISSYGGYTSYADSVKGRFTISRDNSKNTLYLQMNSLRAEDTAVYYCARYHSGVLDYWGQGTLVTVSS VL: DIQMTQSPSSLSASVGDRVTITCRASQSISSYLNWYQQKPGKAPKLLIYAASSLQSGVPSRFSGSGSGTDFTLTISSLQPEDFATYYCQQYYYHYLLTFGQGTKLEIK
